Patent EP0599274A1

Target: HER4/p180erbB4 (human prototype HER4 polypeptide) (human)
Test: cell-based or functional assay

An increase in tyrosine phosphorylation of HER4 after 15 minutes incubation of 2.4 to 4 fold was found for “recombinant rat neu differentiation factor (NDF) (from UniProt P43322 14-241) (ligand)” in this work.
